Measured values published in patent US20250236653A1.

Assays:
human OX40 (human) [1] = target: human OX40 (human) (UniProt P43489); assay: cell-based or functional assay
[2] = target: cynomolgus monkey OX40 (cynomolgus monkey); assay: flow cytometry on cOX40-Jurkat-NF-κB cells
human OX40 (human) [3] = target: human OX40 (human) (UniProt P43489); assay: flow cytometry, traditional IgG1 bivalent mAb on hOX40-Jurkat-NF-κB cells, APC anti-human IgG Fc detection

Chain of human OX40 (human) (P43489 29-277): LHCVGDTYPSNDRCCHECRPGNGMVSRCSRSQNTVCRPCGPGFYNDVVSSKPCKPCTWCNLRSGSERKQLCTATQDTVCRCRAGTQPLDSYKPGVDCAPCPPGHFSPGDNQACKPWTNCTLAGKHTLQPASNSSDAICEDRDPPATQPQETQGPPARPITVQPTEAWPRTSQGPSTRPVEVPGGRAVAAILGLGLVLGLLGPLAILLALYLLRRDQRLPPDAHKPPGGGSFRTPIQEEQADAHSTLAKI

B1: hG1-20E5 (antibody, from another filing, V domains shown)
VH: EVQLQQSGPELVKPGASVKMSCKASGYTFTSYVMHWVKQKPGQGLEWIGYINPYNDGTKYNEKFKGKATLTSDKSSSTAYMELSSLTSEDSAVYYCANYYGSSLSMDYWGQGTSVTVSS
VL: DIQMTQTTSSLSASLGDRVTISCRASQDISNYLNWYQQKPDGTVKLLIYYTSRLHSGVPSRFSGSGSGTDYSLTISNLEQEDIATYFCQQGNTLPWTFGGGTKLEIKR
percentage of GFP positive hOX40/hIL-12R/Jurkat-NF-κB reporter cells in the presence of A20-hFcγRI cells, EC50 (human OX40 (human) [1]): 0.13 nM
fold difference of EC50 against hOX40-Jurkat-NF-κB cells [2]: < 2 fold
EC50 (human OX40 (human) [3]): 10.2 nM
